Assay results from the DeepSol protein solubility set.

test: soluble on expression in E. coli; label from the status in PepcDB or PDB records

**Q.** With “MGSDKIHHHHHHMKKTYVLDTNVLLHDPMALFRFEDNDLVIPITVIEEIDRFKKDLNERGRNARQISRLLDGFRSKGHLIEGITLDHGGKLRVVMLEKTFLEQLPSGLIANANDNAILAVALALQQQNGQPTILVTKDTNLRIKADATGLCAEDYESDKIDFSELYSGTAEVYLAPDQLQVFRREGGLDLSGEFFPNQALTLVDETNLSHTLLGRYRASDRRVVPLIQPPKMGISRIHARNREQQFALDLLLDDNIQLVTLVGKAGTGKTLLAVAAGLHKVADERHFSRLLVSRPIFPMGRDLGFLPGDLQEKLAPWMQPIIDNLDFILGGANNNGDRPSNKQQNYQDLMGMNLLQIEPLTYIRGRSIPRQFMIVDEAQNLTPHEIKTILTRAGEGTKIVLTGDAYQIDNPYVDASSNGLTYVVEKFKNEAIAGHITLERGERSPLAELSANLL” as the sequence, how does the “soluble on expression in E. coli” value read?
**A.** Its value is “not soluble”.

**Q.** For “MVESWALTTPPIDIVNQYLFFIKRKTNYMATYYYALASQKFLLEEEPFEEVLKERRRDYGEKNKEIDFWQVIQPAFLNAPELAEAKAKAPEKNVAIVSTNKSFIVWVKLRLEYVLTGEFEAPSDAIPDPLASLDLEHHHHHH”, which “soluble on expression in E. coli” value is on record?
**A.** The value was “not soluble”.

**Q.** With “MREDHSPRRNNTIENTLTELLPNRLYFGCFPNPDAIDKSDKSVKKTCFININNKFHYEPFYEDFGPWNLSVLYRLCVQVGKLLEVEEKRSRRVVLFCQDDGTGQYDKIRVNTAYVLGAYLIIYQGFSADDAYLKVSSGETVKFVGFRDASMGSPQYLLHLHDVLRGIEKALKFGWLDFSDFDYEEYEFYERVENGDFNWIIPGKILSFCGPHNESREENGYPYHAPDVYFDYFRENKVSTIVRLNAKNYDASKFTKAGFDHVDLFFIDGSTPSDEIMLKFIKVVDNTKGGVAVHCKAGLGRTGTLIACWMMKEYGLTAGECMGWLRVCRPGSVIGPQQPYLIEKQKFCWSLSQSNGVHLTQNKEEKRNVRRLVNQVDDINLGEERISPKSRENTRPNILRRRVQVQNGRSTAPVTIAPAGTSESRRSTKPSRVVDETALDDQGRSQGDRLLQLKAKHQHESETTSPNSSSSRRFVKSSTPQMTVPSQAYLNRNREPIIVTPSKNGTSSGTSSRQLKTTPNGNVAYRTRNSSGNTTSTLTRTPASAVFPSMASRRSETTRYLSPTTPIKPMSPSYTDGTSPRYKARLRSENPIGSTTSTPFSLQPQFGLVRVPPDSPHSIMAHRPPPTTSSRAPLSPHNYSTTQGYSTSSRGLYGDKKPLARGSVSTSTLPSMYMTRKMSENGAVEVEITTSYVEDRKAAEQIDPSSTPPEPKRRFVLVSRKIVSKEVPSAGPTCSNDPRLNYASTRKLPIKISHRLCQICRTIKPIADISMMTDENEKLFILLAAIFQRKLFVEECTRIYKQPAVYTCSSHYSEASTAILNMFGVGGALRIFRARPRKVSQVEKFASHLMGKQFEEDKLIHSAYMFVLNHPEAGAVTGPIIKEEDIPFEETVECSSTTAVNGILPKCFRQPRKQKLEEDSCSSSILRIIKKTTPSLPNRSYTMINQNMEHPLQCCYCLEVYEKRYMTQVPKTEQRIARWVAILGEQFRIRLRMKPANYMCRKHFPQADFSSRGRLLKTAVPNVVSQEKVLAFKLEGNTFVEVKEDNTNIKMEKGTDSEIDIEN” as the sequence, how does the “soluble on expression in E. coli” value read?
**A.** The value was “not soluble”.

**Q.** With “MPYTFENSEALLKNLKDAAPYISAAERFASFKGFVYDKRINIACTSEKLARAGFYSTASPEFPASAKCPFCMLEINFEQCDDPWEKHKSGSPHCEFVMIGEIEESELSFRIISNLAIRHATVRLYEELLGIVATLENGDIANENPITRADATRKLISFRSSSKLLTFDHRLATFQNFIFDKKRNVKCTSKKLAKAGWFSIANKKDKTSAKCPFCLVELDFDESDDPWEEHQKFSASCDFIKLGKLDEKKWTENEALMLGARITIMQKYEKGSWLIDELEKENRIDEIIKIRKIMIKPNHVLKRRRCSI” as the sequence, how does the “soluble on expression in E. coli” value read?
**A.** The value was “not soluble”.

**Q.** With “MSVDTKIIGSFLQLTNYFAENYPAPCDLISSLTDLWFKQGGMIARMMSCDIQEFKSSDVFYEVLYRKIRVGNSLLADTLDPKMAAEGNLFEICKFYSLYLEHLRKDQSELLTIVLERLASQSDFNSTVILDMFTFFDKLYSEGNVGDWWDFLLGSEDASMVFKTPKKTNRPSNAFSTPTATAKRLPMYGSSTCRSPIAEVVDSPTMKYMRSDRELKTAKKKLVDMEHMVDELESENRNLTEKGRELKLIIDSLKSDVTNKRDTAKSSQQREQELSNILEEKEKESAQLLQQLEESRAALRDEQRHLEHQEAENGKIVEQLKTVSELNEKLTMQVKDLQDASENELASFRQKEKELIDELRMATNENVDLEELLKGVTNGKAGLQFENNCLVGKLEELSFVSDRNKQDADNARAQLEEEREKHRLATEKLHQENIDYMKTSDSRIEMILEESKTRKMMDESTIERLRLDLDNEKSYKKNLEDLLNDLNQRALNSEMANHLQKEGIQSVETYLQMAKKRIEHLELELSATNATIEFQSQQLDRAGNMLITEQEIRNQTSVQYKERTSALENQLSQKDAEIENLKRDLQQLVTKHESELKEQHEQLNVHHQSQQKLHSEAEKLRREHEALGKKNCFLGERCKIFVKDSRSGVMKRSTSSDSLAEFLSKGNDNETLEEMMRLIAQTPRKSVAFSFDLDEDETLKGTPIGFRTNLNETRESIASDEFFDRFPSTFPTRAAPRESVVSIGEPKNQFSPLGTSKDRVKTLTSRNEKVKPHLKSSYATEMGNVTSPSADEENVRKGKSKSIFAKLKGPRRDSFFFGKKKQAE” as the sequence, how does the “soluble on expression in E. coli” value read?
**A.** Its value is “not soluble”.

**Q.** Which “soluble on expression in E. coli” value does the source give for “AHHHHHHGSSMELFEVHEGKAKVLVPKAKTIYDSPVFYNPRMAPNRDVVVLLLNVLKPKIVLDALSATGIRGIRFALETPAEEIWMNDINELAYELMKKNVLLNFKGTLKENAKRAIFEGEKTIVINNDDANRLMAEKHRYFHFIDLDPFGSPMEFLDTALRSVKRKGILGVTATDGAPLCGAHPKACLRKYLAVPLRGELCHEVGTRILVGVIARYAAKYDLGMEVLLAYYKDHYFRAFVKLKDGAKKGDETLENLGYVYFDEKTGRFEVEKSFLSTRPNAYGPLWLGPLKNEKVVGEMLELLVSGFEVANYREVLKLLHMLHEELDIPLFYDTHALGKRLKIEPKKLGEIIKELKSMGYEATRTHFSPTGIKTNAPYEVFVEVMRKN” here?
**A.** The value was “soluble”.

**Q.** Which “soluble on expression in E. coli” value does the source give for “GGVDRWPEYYPETGRDIWIDSVMRQEYLWYRDMPSPAAPDYFQKPEAFLKKAVASMDNGFSKIDSLLDEPIPSYGFDYTLYKVLDNDTAYNALISYVVPGSPAEEAGLQRGHWIMMMNGDYITKKVESELLQGSTRQLQIGVYKEVVGEDGEVTGGVVPIGETTMPASRSLVDKPVHRFEIIPWNGKKVGYLMYNEFKAGPTTDSQAYNDDLRRAFRDFQTGGVNEFVLDLRYNTGGSLDCAQLLCTMLAPADKMNQLLALLRYSDKRVEANQDLTFNPELIQSGANLNLSTVYVLTTNATRGAAEMVINCLNPYMKVVLIGTKTAGEYVATKPFVHPTDRFILNLVVCNVYNAEEKSDYATGFKPTYEYNEDSYLSTYLPFGNTNETLLNAALKIMSGITDK” here?
**A.** Its value is “soluble”.

**Q.** For “MLTTTTNDILDQLRPLTVTKRGGAQTKFHPYKIDFVLRRLLATDDEVRVVKQALVAQYQDADNIDTRELRSTMMQILNAQGLTAAAKAYQDYFEAEQQRFAAATN”, which “soluble on expression in E. coli” value is on record?
**A.** The value was “not soluble”.

**Q.** For “MVNRCFFFNRRICFMELFLLRHGKPDIRRSMAIRSVDMYSWIGEYDAAGILDSPDASTVAASEGKFIVSSPMPRALESVAALGLEPDIIIDELHEAPLPVFNIPLLKLTPLVWAALFRIFWMAGGSGGVETFSSVKIRAKLVSCELDKMAETHGSVLSVGHGFMNALVARELQKAGWKRQKVGPSGYWSGIKLVRLEHHHHHH”, which “soluble on expression in E. coli” value is on record?
**A.** Its value is “soluble”.

**Q.** Which “soluble on expression in E. coli” value does the source give for “SRRLVHDLLPPEVCSLLNPAAIYANNEISLRDVEVYGFDYDYTLAQYADALHPEIFSTARDILIEHYKSLLMKIDAFHYVQLGTAYRGLQPVPDEEVIELYGGTQHIPLYQMSGFYGKGPSIKQFMDIFSLPEMALLSCVVDYFLGHSLEFDQAHLYKDVTDAIRDVHVKGLMYQWIEQDMEKYILRGDETFAVLSRLVAHGKQLFLITNSPFSFVDKGMRHMVGPDWRQLFDVVIVQADKPSFFTDRRKPFRKLDEKGSLQWDRITRLEKGKIYRQGNLFDFLRLTEWRGPRVLYFGDHLYSDLADLMLRHGWRTGAIIPELEREIRIINTEQYMHSLTWQQALTGLLERMQTYQDAESRQVLAAWMKERQELRCITKALFNAQFGSIFRTFHNPTYFSRRLVRFSDLYMASLSCLLNYRVDFTFYPRRTPLQHEAPLWMDQLCTGCMKTPFLGDMAHIR” here?
**A.** Its value is “not soluble”.

**Q.** For “MGSDKIHHHHHHMATELFTWHTLSDTLSDFKSGLSLAQNSGAESLLVLTCSQNNYPEEELNALFHACPLKLFGGIYPMLTLKGDLIKQGALIIGFKEAVDVTLFAQLNQVTNESCLEELITSTLKEKNNFCGQDDFLMFYDALISNIEGFIDCLFEHLDHGINIAGGGAGNLDFIQRHCIFTNSGVHSDAILLVALPRTLNTSVAHGWETFDEPFLVSEAQGQTVQSLNYQPAYEVYCQTIESATEYTFNNTDFFDIAKNFPLGIKDINNNIIVRDPILAKNNHLQCFGNIPINSMVYLLESNIDSLVASTEKAAIALLSKLNKTTITTTMVFDCISRALFMEDEFEKELNVIAEHCHLGALFGVLSLGEIANSQSGAIRLLNKSIVISSW”, which “soluble on expression in E. coli” value is on record?
**A.** Its value is “not soluble”.

**Q.** Which “soluble on expression in E. coli” value does the source give for “MNYHSTNVNEIWDACLRILQDIVDERAYRTWFLPIIPVSIEGDTLTLQVPSQFFCEFLEGNFVEQLRTVLGRVIGPNASLQYNALVDNSSPKYPGTVTLAGCADGGQAAEQFDVNLLHRHM” here?
**A.** The value was “not soluble”.

**Q.** With “MDRTTPWQQQPIRYSADLEKPSPREQADIEKIMAKLLKNNERAYDKYKHGLRDAHAKSHAILRGELIVNEGLPPELAQGLFAEPRTYPVIARLSSTSGVRRSDKTRGVRGLGLKVLGVQGEKILPDDSSTNQDFVMVTHEDFLFADAHAYAGLGMITASLLARLSDQALWLGSGLLDLVSKAGIKLPDNLMVFVAPNRPILGLEFFSSAPFRHGDHVAKYRFAPASENVKALSGQLLPRNPAPEQHRDMIAEFFADQTAEFDFSAQLCTDPVAMPIEDAGKNWDKSISPYVSVAKIVFGPQNPYSALRRAYGDDVLAFNSWRGLAEHRPLGSINRLKKTVYESSADYRHRVNRIDRHEPVDISELPDLEHHHHHH” as the sequence, how does the “soluble on expression in E. coli” value read?
**A.** Its value is “soluble”.

**Q.** Which “soluble on expression in E. coli” value does the source give for “MSQILNVTLITETFTPEINGVANTLGRLCDGLRLRGHRVELVRPRQSDEINSGAADDLMLCRGWPIPGYPGLQWGQSSMHKLLRRWQRRRPDVLYIATEGPLGLSALRAARRLGIAVISGFHTNFPQYTQQYGMGFITRLLTHYLRWFHNRSRVTLVPSVSQKVELERRGFERIELLSRGVDSQLFNPSRCSQALRESWGLQTGDIGVIHVGRLAPEKNLGLLKTGFEALKSSYPQRTIKLIVVGDGPQRSELEQQIPDAIFCGTLRGEVLATHYASADMFLFPSLTETFGNVVLEALASGLGVVAYDEAAAGQHIRHGHNGALAMPGDETAFVDAARWLLEDSENLRRVRLNARQHASRQGWTAIIDQFERQLRDACPSESSKTLRQTSDKTIRPVSSMPLDLEHHHHHH” here?
**A.** The value was “not soluble”.

**Q.** Which “soluble on expression in E. coli” value does the source give for “MKEKIPFYNEKEFHDMVKKTKKGTFSGWYIIDKDNKSVEFSGSFNRQFKLNKPVIPVNTEYVTRKEFNEYKVSNDQRLTKIETTLAAQGEQINKLTQTVEKQGEQINQLVQVVLLHGEQINKLTQTVEKQGEQIKELQVEQKAQGEQIKAQGKQIKAQGKTLKSILQALGGINKRLDKIDPPKLEHHHHHH” here?
**A.** Its value is “not soluble”.

**Q.** With “INLEDPRSFLGRELPGFAQFDTEILLAGQGTDYTNMPAESPPPSKVMEEEREANLAEIEKQQTQSDNAQKDPPKQTTGDKKVVFIYHTHNTESYLPLLKGETDPDMARHSKANVTLVGDMFGQALESQGIGATVNKTDIQSKLNKKGLNYARSYDESRPVVKDALASNKNLQYIIDIHRDSRRKKDTTATIKGKSYARVAFVVGKKSKNFEENYKIASELHKLMEKKYPGLSTGVFSKGSPGDNGVYNQDLTDRALLLEFGGVDNNLEELQRAANAAADVFSEMYWDAEKVNAASGE” as the sequence, how does the “soluble on expression in E. coli” value read?
**A.** The value was “not soluble”.

**Q.** For “EITPLIFQKQTTEEVQNLKPYTALQLEGRDIYIREGCNVCHSQMVRPFRSETERYGHYSVAGESVWEHPFLWGSKRTGPDLARVGGRYSDEWHRVHLLNPRELVPESNMPAFPWLAKNTLDGKYTQQKMTLFRDKFGVPYTDEQIANATKDVEGKTEMDAIIAYLQSLGHAMK”, which “soluble on expression in E. coli” value is on record?
**A.** Its value is “not soluble”.
